Where a chain is given by its changes, count along the chain named.

Data on 3 molecules can be found in patent WO2014051109A1 (dated 2014).

Test [1] deals with human BMP9 recombinant protein (prepared by the method of Example 12 of WO2010/126169; N-terminal His-type hBMP9 complex, vector pLN1V5_hBMP9) (human) (UniProt Q9UK05). In words: SPR (BIAcore 2000), antibody captured by anti-mouse IgG on CM5, human BMP9 as analyte, single cycle kinetics. (In general: Surface plasmon resonance follows binding to a sensor surface in real time, without labels.)

For test [2], the target named is T1, human BMP9 recombinant protein (prepared by the method of Example 12 of WO2010/126169); N-terminal His-type … (human, UniProt Q9UK05 23-319; Q9UK05 320-429).
T1 construct: not shown: N-terminal His tag (His6)
T1 sequence 1: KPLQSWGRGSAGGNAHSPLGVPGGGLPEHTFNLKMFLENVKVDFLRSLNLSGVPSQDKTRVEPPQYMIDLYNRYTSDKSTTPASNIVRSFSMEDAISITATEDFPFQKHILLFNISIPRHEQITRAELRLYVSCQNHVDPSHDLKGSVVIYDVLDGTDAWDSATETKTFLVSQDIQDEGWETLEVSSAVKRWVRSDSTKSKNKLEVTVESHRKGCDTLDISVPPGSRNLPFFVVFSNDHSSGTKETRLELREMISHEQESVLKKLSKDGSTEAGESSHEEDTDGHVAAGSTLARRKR
T1 sequence 2: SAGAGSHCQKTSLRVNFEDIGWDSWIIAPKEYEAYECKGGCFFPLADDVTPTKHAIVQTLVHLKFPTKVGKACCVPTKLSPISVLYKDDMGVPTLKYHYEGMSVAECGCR
The test is described as above.

Test [3] addresses T2, human BMP9/10 chimeric protein C (human, UniProt Q9UK05 23-319; Q9UK05 320-429).
T2 construct: also called BMP9/10 chimeric recombinant protein C; pLN1V5_hBMP9/10C product; not shown: His6 tag
T2 chain 1: T1 sequence 1
T2 chain 2: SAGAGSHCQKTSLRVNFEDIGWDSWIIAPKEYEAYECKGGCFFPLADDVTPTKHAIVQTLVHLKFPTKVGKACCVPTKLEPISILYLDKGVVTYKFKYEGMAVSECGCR
The test is described as follows: solid-phase antigen ELISA, recombinant 3C7-3-1 antibody 1000 ng/mL on immobilized antigen (3 ug/mL).

Test [4] deals with T3, human mature dimer BMP9 recombinant protein (R&D Systems, Cat#3209-BP) (human, UniProt Q9UK05 320-429).
T3 sequence: T1 sequence 2
The test is described as follows: cell-based or functional assay.

Test [5] addresses T4, human mature dimer BMP10 recombinant protein (R&D Systems, Cat#2926-BP) (human, UniProt O95393 317-424).
T4 construct: Bought protein; also called human BMP10
T4 sequence: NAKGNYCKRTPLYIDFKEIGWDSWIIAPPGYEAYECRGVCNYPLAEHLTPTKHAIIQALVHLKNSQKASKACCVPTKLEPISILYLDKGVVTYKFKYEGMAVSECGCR
The test is described as follows: solid-phase antigen ELISA, biotin-labeled antibody on immobilized BMP10. For orientation: In an ELISA, binding on a coated surface is turned into a signal by an enzyme label.

Test [6] concerns the target T1, human BMP9 recombinant protein …. The test is described as follows: SPR (BIAcore 2000), ratio of Kd values against the R&D antibody.
Test [7] has as its target T3, human mature dimer BMP9 recombinant …. The test is described as follows: solid-phase antigen ELISA, biotin-labeled antibody 100 ng/mL on immobilized BMP9.

On to “R&D antibody (anti-human BMP9 mouse monoclonal antibody, R&D Systems, clone No. 360107)”, for which, in test [1], the Kd is 0.616 nM.

B1: 3C7-3-1 antibody (antibody, V domains shown)
VH: EVQLQQSGPELVKPGASVKISCKASGNSFTGYYMNWMKQSPEKSLEWIGEINPSTGATTYNQKFKAKATLTVDKSSSTAYMQLKSLTSEDFAVYYCTRRAAYYFDYWGQGTTLTVSS
VL: QIVLTQSPALMSASPGEKVTMTCSASSSVNYMYWYQQKPRSSPKPWIYLTSNLASGVPARFSGSGSGTSYSLTISSMEAEDAATYYCQQWSSNPRTFGGGTKLEIK
notes: Mouse IgG1, kappa; also called recombinant 3C7-3-1 antibody (mouse IgG1, kappa)
For B1, in test [2], the Kd turned out to be 0.0264 nM. The binding result in test [3] is listed as “binds”; in test [5], “no binding (tested: 100 ng/mL antibody)”. Moreover, the “BMP9-dependent ALK1-derived signal inhibitory activity (luciferase, human ALK1 reporter cells ALK1/p(GCCG)12-Luc/HepG2(38.5), 10 ng/mL BMP9)” value in test [4] was ~0.0625 fold of the R&D antibody. Also, in test [6], the “binding activity, fold of the R&D antibody” value is 23.3 fold.

B2: 3B7-3-3 antibody (antibody, V domains shown)
VH: EVQLQQSRPELVKPGASVKISCKASDYSFTDYYMNWVKQSPDKSLEWIGEISPSSGGTTYNQKFKAKATLTVDKSSSTAYMQLKSLTSEDSAVYYCATRGAFYFDYWGQGTALTVSS
VL: B1 VL with S14F, N30S, A59T, Y86F
notes: Mouse monoclonal antibody from a hybridoma (BMP9 KO mouse); also called anti-human BMP9 monoclonal antibody 3B7-3-3
For the molecule B2, the binding result in test [7] is reported as “binds”; in test [5], “no binding (tested: 100 ng/mL antibody)”.

For orientation: Kd means a measure of binding affinity in units of concentration.
